Test: yeast display, Sf9 membrane polyspecificity reagent, FACS + sequencing; frameworks hold sequencing errors
Outline: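 In a synthetic yeast display library (Saccharomyces cerevisiae BJ5465), nanobody expression was induced with galactose for 36–48 hours. FACS gates were set low and high (top ~1%) using anti-HA fluorescence for expression and streptavidin fluorescence for binding of the Sf9 membrane reagent. Each polyreactivity label is drawn from the gate of origin.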

Row | Sequence | polyreactivity (PSR sort gate)
1 | QVQLVESGGGLVQAGGSLRLSCAASGRIFYWYAMGWYRQAPGKERELVATINSGGSTTYADSVKGRFTISRDNAKNTVYLQMNSLKPEDTAVYYCARQRTVKKYYYWGQGTQVTVSS | high polyreactivity
2 | QVQLVESGGGLVQAGGSLRLSCAASGSTFGVYAMGWYRQAPGKDRELVAAISRSGGRTYYADSVKGRFTISRDNAKNSVYLQMNSLKPEDTAVYYCALYGGLGDRFRPRYYWGQGTQVTVSS | high polyreactivity
3 | QVQLVESGGGLVQAGGSLRLSCAASGSTFSNAMGWYREAPGKERELVAAITNRGGSTYYADSVKGRFTISRDNAKNTVYLQMNSLKPEDTAVYYCAAAGIPESWYQERDYWGQGTQVTVSS | low polyreactivity
4 | QVQLVESGGGLVQAGGSLRLSCAASGHTFAYNAMGWYRQAPGKEREFVAAITWSTDNTYYADSVKGRFTISRDNAKNTVYLQMNTLKPEDTAVYYCAVDVYFYYRHYGYWGQGTQVTVSS | low polyreactivity
5 | QVQLVESGGGLVQAGGSLRLSCAASGFIFQKYAMGWYRQAPGKERELVAAIRYDGGSTYYADSVKGRFTISRDNAKNTVYLQMNSLKPEDTAVYYCAAYGPRFLIYPPYRYNYWGQGTQVTVSS | high polyreactivity
6 | QLQLVESGGGLVPAGGSLRLSCAASGIIFTSNTMGWYRQAPGKEREFVASINWNGSSTYADSVKGRFTISRDNGKNTVYLEMNSLKPEDTAVYYCNADYISNSVQFSLYDYWGQGTQVTVSS | low polyreactivity
7 | QVQLVESGGGLVQAGGSLRLSCAASGSTFYFNAMGWYRQAPGKERELVAGIRYSGSSTYYADSVKGRFTISRDNAKNTVYLQMNSLKPEDTAVYYCAARYSVYPRVSKYSYRFNYWGQGNQVTVSS | high polyreactivity
8 | QVQLVESGGGLVQAGGSLRLSCAASGSTFYSNAMGWYRQAPGKERELVAAINYSGGRTYYADSVKGRFTLSRDNAKNTVYLQMNSLKPEDTAVYYCNAQFYNVRGYYIGEYWGQGTQVTVSS | high polyreactivity
9 | QVQLVETGGGLVKAGGSLRLSCAASGRIFLVNDMGWYRQAPGKERELVARINGGITNYADSVKGRFTISRDNAKNTVYFQMISLKPEDTAVYYCAARSRKYYSYYYWGQGTQLTVSS | high polyreactivity
10 | QVQLVESGGGLVQAGGILRLSCASSGSTFPTNAMGWYTQAPGKERELVAAISSSGGRTYYADSVKGRFTISRDNAKNTVDLQMNSLKPEDTAVYSCAAVWWRAYAVRMYYWGQGTQVTVSS | high polyreactivity
11 | QLQLVESGGGLVQAGGSLRLSCAASGLILPYYAMGWYRQAPGKERALVAAISRTGGRTSYADSVKGRFTISRDNAKNTVYLQMNSLKPEDTAVYYCAARYGRYYGYNYWGQGTQVTVSS | high polyreactivity
12 | QVQLVESGGGLVQAGGSLRLSCAASGSIFVPYAMGWYRQAPGKERELVAAISYSGGTTYADSVKGRFTISRDNAKNTVYLQMNRVKPEDTAVYYCAARYWRRWRQSVSLDYWGQGSQVTVSS | high polyreactivity
13 | QVQLVESGGGLVQAGGSLRLSCAASGRTFGTYAMGWYRQAPGKERELVAAINFSGGNTYYADSVKGLFTITRDNAKNTVYLQMNSLKPEDTAVYYCAKRGHSYSLDLYYIVTYDYWGQGTQVTVSS | low polyreactivity
14 | QVQLVESGGGLVQAGGCLRLSGAASVYTYRKYAMGWSRQAPGNERELVAAISASGGSTYYADSVKGRFTISRDKAKNTVYLPMNSLKPEDTAVYYCAKVPVTVYSRPFDYWGQGTQVTVSS | high polyreactivity
15 | QVQLVESVGGLVEAGGSLRLSCASSGFISSHYAMGWYRQAPGKESELVAAITSGGSTYYADSVKGRFTISRDNAKNTVYLQMNSLKPEDTAVYYCAAYYRRWPRRYDYWGQGTQVTVSS | high polyreactivity
16 | QVQLVESGGGIVQAGGSLRLTCAASGFTFFYNAMGWYRQAPGKERELVAAITTNGGSTYYADSVKGRFTISRDNANNTVYLQMNSLKTEDTAVYYFAAEYGITEYDYWGQGTQVTVSS | low polyreactivity
17 | QVQLVESGGGLVQAGGSLRLSCAASGRIFSTYAMGWYRQAPGKERELVAAITNSAGSTYYADSVKGLFTISRDNAKNTVYLQMNSLKPEDTAVYYCATGWSRISYGFDYWGQGTQVTVSS | low polyreactivity
18 | QVQLVESGGALVQAGGSLRLSCAASGRTFAVNAMGWYRQAPGKEREFVAAISKRGGSTYYADSVKGRFTISRDNAKNTVYLQMNSLTPEDTAVYYCAADYTKHYWGQGTQVTVSS | high polyreactivity
19 | QVQLVESGGGLVQAGGSLRLSCAASGLIFSRNAMGWYRQAPGKERELVAAISTGGSTYYADSVKGRFTISRDNAKNTVYLQMNSLKPEATAVYDCAAAPGYIYEYWGQGTQVTVSS | low polyreactivity
20 | QVQLVESGGGLVQAGGSLRLSCAPSGSILRSYDMGWYRQAPGTERELVAAISSSGGSTYYADSVKGRFTISRDNAKNTVYLQMNSLKQEDTAVYYCAAATSRRFDYWGQGTQVTVSS | high polyreactivity
21 | QVQLVESGGGLVQAGGSLRLSCAASGLIFIAYAMGWYRQAPGKEREFVAAITWNGVSTYYADSVKGRFTISRDNAKNTVYLQMNSLKPEDTAVYYCNADYVFSPWAYEYWGQGTQVTVSS | high polyreactivity
22 | QVQLVESGGGLVQAGGTLRLTCAASGLTFGSNAMGWYRTAPGKERELVAAISVSGSTYYADSVKGRFTISRDNAKNTVYLLMNSLKPEDTAVYYCATYWAAGSRSRYASWGQGTQVTVSS | high polyreactivity

Row | Sequence | polyreactivity (PSR sort gate)
23 | QVQLVESGGGLVQAGGSLRLSCAASGRIFSKKAMGWYRQAPGKERELVARIRWTGGITYYADSVKGRFTISRDNAKNTVYLQMNSLKPEDTAVYYCAADYLWGTWTTYFRPLLYDYWGQGTQVTVSS | low polyreactivity
24 | QVQLVESGAGLVQAGCRLRLSCASSGIIFSPNAIGWYRQAPGKERELVAAISKRGGSTYYADSVKGRFTISRDNAKNTVYLQLHSLKQEDTAVYYCAKRQQQSSGYDYWGQGTQVTVSS | high polyreactivity
25 | QVQLVESGGGLVQAGGSLRLSCAASGFTFRYYAMGWYRQAPGKERELVAAISYNGGSTYYADSVKGRFTISRDNAKNTVYLQMNSLKPEDTAVYYCAADGGRRFGYWGQGTQVTVSS | high polyreactivity
26 | QVQLVESGGGLVQAGGSLRLSCAASGSIFRVNAMGWYRQAPGKERELVAAISCRGASTYYADSVKGRFTISRDNAKNTVYLQMNSLKPVDTAVYYCAAYGYSIGPYYYWGQGTQVTGSS | high polyreactivity
27 | QVQLVESGGGLVQAGGSLRLICAASGRIFRGNVMGWYRQAPGKERELDAAISSGGRTYYADSVKGRFTISRDNAKNTVYLQMNSLKPEDSAVYYCAKAFREGEGKFDYWGQGTQVTVSS | high polyreactivity
28 | QVQLVETGGGLVQAGGSLRLSCAASGGIFLVNDMGWYRPAPGKERELVAAISGSGGSTYYADSVKGRVTISRDNAKNTVYLQMNSLKPEDTAVYYCAAVGTHKAGGAYNYWGQGTQVTVSS | low polyreactivity
29 | QVQLVESGGGLVQAGGSLRISCAASGSIFGYYAMGWYRQAPGKERELVAVITWNTGNTYYADSVKGRFTISRDNAKNTVYLQMNSLKPEDNAVYYCAADQTGWGDTYDYWGQGTQVTVSS | low polyreactivity
30 | QVQLVESGGGLVQAGGSLRLSCAASGSTFYRNAMGWYRQAPGKERELVAAINSTDSTNYADSVKGLFTISRDNAKNTVYLQMNSLKPEDTAVYYCAAVGDNLATAEYDYWGQGTQVTLSS | low polyreactivity
31 | QVQLVESGGGLGQAGGSLRLSCAASGLIFVRNDMGWYRQAPGKERELVADISDGSTYADSVKGRFTISRDNAKNTVYLQMNSLKPEDTAVYYCNKDNHDVELPVEFEYWGQGTHVTVSS | high polyreactivity
32 | QDQLVESGGGLVQAGGSLRLSCAASGRIFPYYAMGWYRQAPGTERELVAAINSGGSTYYADSVKGRFPISRDNAKNTVYLQMNSLKPEDTAVNYCNADVLYEDGFFWDDYWGQGTQVTVSS | low polyreactivity
33 | QVQLVESGGGLVQAGGSLRLSCAASGRIFKKNAMGWYRQAPGKERELVADINWTGGSTYYADSVKGRFTISRDYAKNTVDLQMNSLKPEDTAVYYCAVGVYPSYRGTTFSTRRDYWGQGTQVTVSS | low polyreactivity
34 | QVQLVESGGGLVQAGGSLRLSCAASGSIFPGYAMGWYRQAPGKERELVAAIDRSGGSTYYADSVKGRFTISRDNAKNTVYLQMNSLKPEDTAVYYCNRVFTWRYGYRYEYWGQGTQVTVSS | high polyreactivity
35 | QVQLVESGGGLVQAGGSLRLSCAASGRIFVINAMGWYRQAPGKERELVAAISSSGGSTSYADSVKGRFTISRDNAKNTVYLQMNSLKPEDTAVYYCAAKPRVRRVDGYYWGQGSQVTVSS | high polyreactivity
36 | QVQLVESGGGLDQAGGSLRLSCVASGFTFRVYAMGWYRQAPGKERELVAAISRVGSTNYADSVKGRFTISRDNAKNTVYLQMNSLKPEDTAVYYCNAVLRHTWVSRGYGSWGQGTQVTVSS | high polyreactivity
37 | QVQLLESGGGLVQAGGSLRLSCDASGSISYHNAMGWYRQAPGKERELVASITSGSSTYYADSVKGSFTISRDNAKNTVYLQMNSLKPEDTAVYYCAAQDYSPYERGRDYWGQGTQVTVSS | low polyreactivity
38 | QVQLVESGGGLVQAGGSLRLSCAASGRTFFWYAMGWYRQAPGKERELVADISSSGGSTYYADSVKGRFTISRDNAKNTVYLQMNSLKPEDTAVYYCAALSPWWRGGYDYWGQGTQVTVSS | high polyreactivity
39 | QVQLVESGGGLVQAGGSLRLSCAASGSTFLYYTMGWYRQAPGKERELVAAITNGGGSTYYADSVKGRFTISRDNAKNTVYLQMNSLKPEDTAVYYCNAPTVKYRLGYDYWGQGTQVTVSS | high polyreactivity
40 | QVQLVESGGGLVQAGGSLRLSCASSGRNFGYDGMGWYRQAPGKERELVAAITYRGGSTYYADSVKGRFTISRDNAKNTVYLQMNSLKPEDTAVYYCAADGYSHYRYLYDYWGQGTQVTVSS | low polyreactivity
41 | QVQLVESGGGLVQAGGSLRLSCAASGSTFVTNDMGWYRQAPGKESELVAAISSGTSTNYADSVKGRFTISRDNAKNTVYLQMNSLKPEDTAVYYCAADSLKRYDYWGQGTQVTVSS | low polyreactivity
42 | QVQLVESGGGLVQAGGSLRLSCAASGSIFPRNAMGWYRQAPGKERELVAGISSGGSTNYADSVKGRFTISRDNAKNTVYLQMNSLNPEDTAVYYCAARQWIRNLGFGYSIYNYWGQGTQVTVSS | high polyreactivity
43 | QVQLVESGGGLVQAGGSLRLSCAASGRTFARYAMGWYRQAPWKERELVAAISRGGDSTYYADSVKGRFTISRDNAKNNVYLQMNSLKPEDTADYYCNAYVILALGYGGYDYWGQGTQVTVSS | high polyreactivity
